Measured values from publication PMC5739296.

Target: Villin-1 (human (endogenous in HepG2)) (UniProt P09327)
Test: co-IP

UniProt P09327, sequence (P09327 whole entry): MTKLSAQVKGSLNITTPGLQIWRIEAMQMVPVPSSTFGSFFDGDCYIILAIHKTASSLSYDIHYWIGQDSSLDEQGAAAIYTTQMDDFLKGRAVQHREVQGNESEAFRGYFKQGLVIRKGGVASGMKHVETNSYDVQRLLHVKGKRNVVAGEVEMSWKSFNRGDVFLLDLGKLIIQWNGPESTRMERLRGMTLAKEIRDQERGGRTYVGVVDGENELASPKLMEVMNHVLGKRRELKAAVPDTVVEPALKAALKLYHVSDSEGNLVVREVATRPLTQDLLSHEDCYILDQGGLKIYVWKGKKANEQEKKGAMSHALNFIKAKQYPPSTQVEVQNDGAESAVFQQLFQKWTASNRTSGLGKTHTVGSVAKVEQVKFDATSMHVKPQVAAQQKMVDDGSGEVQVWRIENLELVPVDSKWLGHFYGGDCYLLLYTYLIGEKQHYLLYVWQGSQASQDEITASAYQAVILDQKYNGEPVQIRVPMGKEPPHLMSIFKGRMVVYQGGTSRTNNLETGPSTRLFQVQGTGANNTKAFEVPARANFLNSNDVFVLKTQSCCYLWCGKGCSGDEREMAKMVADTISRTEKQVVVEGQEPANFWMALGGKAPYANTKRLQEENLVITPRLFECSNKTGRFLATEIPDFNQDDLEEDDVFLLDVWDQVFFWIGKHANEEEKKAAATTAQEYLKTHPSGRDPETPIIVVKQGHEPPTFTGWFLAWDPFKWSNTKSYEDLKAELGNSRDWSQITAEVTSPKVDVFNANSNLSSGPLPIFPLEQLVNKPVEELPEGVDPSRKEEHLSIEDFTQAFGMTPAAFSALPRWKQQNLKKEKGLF

ß-actin (actin, cytoplasmic 1, ACTB) (from UniProt P60709 1-375) (natural protein)
fold change of co-precipitated actin after fusion against control: 28.7 fold
